Laboratory results from patent US12679878B2, “CRF2 receptor agonists and their use in therapy” (SANOFI, priority 2020, dated 2026).
Starred links: 1 amine or outer side, 2 acyl side, 3 side chain; linkers in the order of their positions; H or OH if unused. Non-standard residues stand in square brackets, D forms with d. Groups on a side chain read outwards from the residue. No end group written: not given here. *: point of attachment. C18 diacid = O=C(O)CCCCCCCCCCCCCCCCC(=O)*; γGlu = O=C(O)[C@H](CCC(=O)[*:2])N[*:1]; Palmitoyl = CCCCCCCCCCCCCCCC(=O)*; AEEA = NCCOCCOCC(=O)O; Aib = CC(C)(N)C(=O)O

Target: T1, CRF1R receptor (anti-target) (UniProt P34998 24-415, limits assumed)
T1 sequence (looked up): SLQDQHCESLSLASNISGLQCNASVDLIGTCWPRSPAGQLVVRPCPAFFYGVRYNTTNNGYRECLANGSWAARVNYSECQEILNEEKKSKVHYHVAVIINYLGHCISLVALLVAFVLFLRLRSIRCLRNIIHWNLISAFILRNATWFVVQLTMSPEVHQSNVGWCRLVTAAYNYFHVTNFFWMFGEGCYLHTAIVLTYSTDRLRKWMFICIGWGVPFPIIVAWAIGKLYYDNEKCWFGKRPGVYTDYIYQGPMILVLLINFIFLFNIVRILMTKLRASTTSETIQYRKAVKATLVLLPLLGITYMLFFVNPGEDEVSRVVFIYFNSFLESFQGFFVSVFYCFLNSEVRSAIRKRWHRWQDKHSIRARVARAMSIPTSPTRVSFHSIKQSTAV
Test: cell-based or functional assay

B1: peptide of SEQ ID NO: 30 (peptide)
peptide: IVLSLD[dV]PTKLK([γGlu-Palmitoyl])KKLLKQERKRKEREQAEKAARILERV-NH2
modifications: N-terminus assumed
SMILES: CCCCCCCCCCCCCCCC(=O)N[C@@H](CCC(=O)NCCCC[C@H](NC(=O)[C@H](CC(C)C)NC(=O)[C@H](CCCCN)NC(=O)[C@@H](NC(=O)[C@@H]1CCCN1C(=O)[C@H](NC(=O)[C@H](CC(=O)O)NC(=O)[C@H](CC(C)C)NC(=O)[C@H](CO)NC(=O)[C@H](CC(C)C)NC(=O)[C@@H](NC(=O)[C@@H](N)[C@@H](C)CC)C(C)C)C(C)C)[C@@H](C)O)C(=O)N[C@@H](CCCCN)C(=O)N[C@@H](CCCCN)C(=O)N[C@@H](CC(C)C)C(=O)N[C@@H](CC(C)C)C(=O)N[C@@H](CCCCN)C(=O)N[C@@H](CCC(N)=O)C(=O)N[C@@H](CCC(=O)O)C(=O)N[C@@H](CCCNC(=N)N)C(=O)N[C@@H](CCCCN)C(=O)N[C@@H](CCCNC(=N)N)C(=O)N[C@@H](CCCCN)C(=O)N[C@@H](CCC(=O)O)C(=O)N[C@@H](CCCNC(=N)N)C(=O)N[C@@H](CCC(=O)O)C(=O)N[C@@H](CCC(N)=O)C(=O)N[C@@H](C)C(=O)N[C@@H](CCC(=O)O)C(=O)N[C@@H](CCCCN)C(=O)N[C@@H](C)C(=O)N[C@@H](C)C(=O)N[C@@H](CCCNC(=N)N)C(=O)N[C@H](C(=O)N[C@@H](CC(C)C)C(=O)N[C@@H](CCC(=O)O)C(=O)N[C@@H](CCCNC(=N)N)C(=O)N[C@H](C(N)=O)C(C)C)[C@@H](C)CC)C(=O)O
EC50 [nM] 0% HSA (cAMP, HTRF): > 100 nM | Emax (%) (100% = Sauvagine at 100 nM): 14.5%

B2: peptide of SEQ ID NO: 29 (peptide)
peptide: IVLSLD[dV]PTKLK([γGlu-Palmitoyl])KKLLKQERKRKERE[Aib]AEKAARILERV-NH2
modifications: N-terminus assumed
SMILES: CCCCCCCCCCCCCCCC(=O)N[C@@H](CCC(=O)NCCCC[C@H](NC(=O)[C@H](CC(C)C)NC(=O)[C@H](CCCCN)NC(=O)[C@@H](NC(=O)[C@@H]1CCCN1C(=O)[C@H](NC(=O)[C@H](CC(=O)O)NC(=O)[C@H](CC(C)C)NC(=O)[C@H](CO)NC(=O)[C@H](CC(C)C)NC(=O)[C@@H](NC(=O)[C@@H](N)[C@@H](C)CC)C(C)C)C(C)C)[C@@H](C)O)C(=O)N[C@@H](CCCCN)C(=O)N[C@@H](CCCCN)C(=O)N[C@@H](CC(C)C)C(=O)N[C@@H](CC(C)C)C(=O)N[C@@H](CCCCN)C(=O)N[C@@H](CCC(N)=O)C(=O)N[C@@H](CCC(=O)O)C(=O)N[C@@H](CCCNC(=N)N)C(=O)N[C@@H](CCCCN)C(=O)N[C@@H](CCCNC(=N)N)C(=O)N[C@@H](CCCCN)C(=O)N[C@@H](CCC(=O)O)C(=O)N[C@@H](CCCNC(=N)N)C(=O)N[C@@H](CCC(=O)O)C(=O)NC(C)(C)C(=O)N[C@@H](C)C(=O)N[C@@H](CCC(=O)O)C(=O)N[C@@H](CCCCN)C(=O)N[C@@H](C)C(=O)N[C@@H](C)C(=O)N[C@@H](CCCNC(=N)N)C(=O)N[C@H](C(=O)N[C@@H](CC(C)C)C(=O)N[C@@H](CCC(=O)O)C(=O)N[C@@H](CCCNC(=N)N)C(=O)N[C@H](C(N)=O)C(C)C)[C@@H](C)CC)C(=O)O
EC50 [nM] 0% HSA (cAMP, HTRF): > 100 nM | Emax (%) (100% = Sauvagine at 100 nM): 18.4%

B3: peptide of SEQ ID NO: 89 (peptide)
peptide: IVLSLDVPIKLK([AEEA-AEEA-γGlu-C18 diacid])QILLKQERQKKQREQAKTN[Aib]QILAQV-NH2
modifications: N-terminus assumed
SMILES: CC[C@H](C)[C@H](N)C(=O)N[C@H](C(=O)N[C@@H](CC(C)C)C(=O)N[C@@H](CO)C(=O)N[C@@H](CC(C)C)C(=O)N[C@@H](CC(=O)O)C(=O)N[C@H](C(=O)N1CCC[C@H]1C(=O)N[C@H](C(=O)N[C@@H](CCCCN)C(=O)N[C@@H](CC(C)C)C(=O)N[C@@H](CCCCNC(=O)COCCOCCNC(=O)COCCOCCNC(=O)CC[C@H](NC(=O)CCCCCCCCCCCCCCCCC(=O)O)C(=O)O)C(=O)N[C@@H](CCC(N)=O)C(=O)N[C@H](C(=O)N[C@@H](CC(C)C)C(=O)N[C@@H](CC(C)C)C(=O)N[C@@H](CCCCN)C(=O)N[C@@H](CCC(N)=O)C(=O)N[C@@H](CCC(=O)O)C(=O)N[C@@H](CCCNC(=N)N)C(=O)N[C@@H](CCC(N)=O)C(=O)N[C@@H](CCCCN)C(=O)N[C@@H](CCCCN)C(=O)N[C@@H](CCC(N)=O)C(=O)N[C@@H](CCCNC(=N)N)C(=O)N[C@@H](CCC(=O)O)C(=O)N[C@@H](CCC(N)=O)C(=O)N[C@@H](C)C(=O)N[C@@H](CCCCN)C(=O)N[C@H](C(=O)N[C@@H](CC(N)=O)C(=O)NC(C)(C)C(=O)N[C@@H](CCC(N)=O)C(=O)N[C@H](C(=O)N[C@@H](CC(C)C)C(=O)N[C@@H](C)C(=O)N[C@@H](CCC(N)=O)C(=O)N[C@H](C(N)=O)C(C)C)[C@@H](C)CC)[C@@H](C)O)[C@@H](C)CC)[C@@H](C)CC)C(C)C)C(C)C
EC50 [nM] 0% HSA (cAMP, HTRF): > 100 nM | Emax (%) (100% = Sauvagine at 100 nM): 3.7%

B4: peptide of SEQ ID NO: 88 (peptide)
peptide: IVLSLDVPIKLK([AEEA-AEEA-γGlu-C18 diacid])QILLKQERQKKQREKAKTN[Aib]QILAQV-NH2
modifications: N-terminus assumed
SMILES: CC[C@H](C)[C@H](N)C(=O)N[C@H](C(=O)N[C@@H](CC(C)C)C(=O)N[C@@H](CO)C(=O)N[C@@H](CC(C)C)C(=O)N[C@@H](CC(=O)O)C(=O)N[C@H](C(=O)N1CCC[C@H]1C(=O)N[C@H](C(=O)N[C@@H](CCCCN)C(=O)N[C@@H](CC(C)C)C(=O)N[C@@H](CCCCNC(=O)COCCOCCNC(=O)COCCOCCNC(=O)CC[C@H](NC(=O)CCCCCCCCCCCCCCCCC(=O)O)C(=O)O)C(=O)N[C@@H](CCC(N)=O)C(=O)N[C@H](C(=O)N[C@@H](CC(C)C)C(=O)N[C@@H](CC(C)C)C(=O)N[C@@H](CCCCN)C(=O)N[C@@H](CCC(N)=O)C(=O)N[C@@H](CCC(=O)O)C(=O)N[C@@H](CCCNC(=N)N)C(=O)N[C@@H](CCC(N)=O)C(=O)N[C@@H](CCCCN)C(=O)N[C@@H](CCCCN)C(=O)N[C@@H](CCC(N)=O)C(=O)N[C@@H](CCCNC(=N)N)C(=O)N[C@@H](CCC(=O)O)C(=O)N[C@@H](CCCCN)C(=O)N[C@@H](C)C(=O)N[C@@H](CCCCN)C(=O)N[C@H](C(=O)N[C@@H](CC(N)=O)C(=O)NC(C)(C)C(=O)N[C@@H](CCC(N)=O)C(=O)N[C@H](C(=O)N[C@@H](CC(C)C)C(=O)N[C@@H](C)C(=O)N[C@@H](CCC(N)=O)C(=O)N[C@H](C(N)=O)C(C)C)[C@@H](C)CC)[C@@H](C)O)[C@@H](C)CC)[C@@H](C)CC)C(C)C)C(C)C
EC50 [nM] 0% HSA (cAMP, HTRF): > 100 nM | Emax (%) (100% = Sauvagine at 100 nM): 2.3%
